Source: article doi:10.1101/2024.06.17.598829 (bioRxiv, 2024)
Several values for one entry are separate records, joined by “and”; a condition that tells them apart may be missing. Equal values may be shown once.

Target: the molecule itself
Assay: SEC

B1: MBP:NPH3-C104 (domain or fragment, Arabidopsis, UniProt Q9FMF5 643-746, looked up)
chain: PQSFQEGWAAAKKDINTLKFELETVKTKYVELQNEMEVMQRQFEKTGKVKNTPSSSAWTSGWKKLSKLTKMSGQESHDISSGGEQAGVDHPPPRKPRRWRNSIS
stoichiometry N: 3 and 6
